Molecular target: Gαq construct with N-terminal fusion of LgBiT (UniProt P50148)
Assay: NanoBiT Gαq-recruitment assay (concentration-response to LTC4)
Settings: read at log[LTC4, (M)] = -6, the highest concentration; n = 3, mean ± s.e.m.; parent: est. 97; read off a plot; scale: normalized Gq response

Substance	response
CysLT2R with C-terminal SmBiT (wild type, NanoBiT Gαq-recruitment assay) (from UniProt Q9NS75) R136A	0
CysLT2R with C-terminal SmBiT (wild type, NanoBiT Gαq-recruitment assay) (from UniProt Q9NS75) S241A	57
